Laboratory results: patent US20090280132A1

Molecular target: Fc receptor (FcR) on antigen presenting cells
Assay: cell-based or functional assay

inhibition of IL-2 production in Ig-PLP1 mediated activation of 4E3 T cells: 50%
Substance: Ig-W (from UniProt P01867 1-335) (antibody)
